From publication PMC8079448, “Structure of the SWI/SNF complex bound to the nucleosome and insights into the functional modularity” (Cell Discovery, 2021)

Target: T1, Snf5 (wild type, subunit of the recombinant SWI/SNF complex) (yeast, UniProt P18480 1-905)
T1 construct: Snf5, yeast, wild type; also called WT; source: overexpressed in E. coli (modified EcoExpress system), in the reconstituted complex
Assay: cryo-EM structure; recombinant yeast SWI/SNF complex in complex with the mononucleosome; overall resolution 6.9 Å, local 3.1 Å at the nucleosome bound with the FH of Snf5, local 3.6 Å at the SRM
Conditions: both partners purified

T1 sequence (P18480 whole entry, one chain of several): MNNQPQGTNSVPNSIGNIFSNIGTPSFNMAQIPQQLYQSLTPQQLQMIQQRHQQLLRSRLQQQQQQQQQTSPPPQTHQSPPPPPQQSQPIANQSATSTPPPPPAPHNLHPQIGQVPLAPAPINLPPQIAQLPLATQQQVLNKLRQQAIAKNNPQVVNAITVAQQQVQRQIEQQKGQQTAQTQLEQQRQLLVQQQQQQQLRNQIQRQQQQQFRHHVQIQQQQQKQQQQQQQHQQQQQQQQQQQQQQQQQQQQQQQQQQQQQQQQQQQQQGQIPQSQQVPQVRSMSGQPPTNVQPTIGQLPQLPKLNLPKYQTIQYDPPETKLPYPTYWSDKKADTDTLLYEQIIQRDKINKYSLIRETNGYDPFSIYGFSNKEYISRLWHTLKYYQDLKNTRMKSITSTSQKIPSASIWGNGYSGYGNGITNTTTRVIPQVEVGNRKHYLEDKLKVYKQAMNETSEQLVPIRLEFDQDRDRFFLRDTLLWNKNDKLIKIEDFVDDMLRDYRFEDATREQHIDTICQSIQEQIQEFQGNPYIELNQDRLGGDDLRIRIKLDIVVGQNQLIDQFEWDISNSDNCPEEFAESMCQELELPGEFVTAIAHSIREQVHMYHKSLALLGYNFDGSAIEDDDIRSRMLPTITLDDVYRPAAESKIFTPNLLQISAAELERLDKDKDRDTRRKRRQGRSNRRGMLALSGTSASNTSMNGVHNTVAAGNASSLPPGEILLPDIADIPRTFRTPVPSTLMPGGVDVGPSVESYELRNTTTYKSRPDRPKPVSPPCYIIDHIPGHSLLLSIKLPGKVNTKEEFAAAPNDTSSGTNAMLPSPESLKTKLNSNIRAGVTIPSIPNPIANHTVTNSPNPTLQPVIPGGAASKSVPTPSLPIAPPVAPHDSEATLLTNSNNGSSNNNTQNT

Row | binding result | Binder
1 | binds | Swi3 (natural protein, yeast, Swi3, yeast; source: overexpressed in E. coli (modified EcoExpress system), in the reconstituted complex) MENTLGEGSTVNASVDVDQHGNDNNSDSNANAAVAGVANTDTAGEESQQQDESLKDEATVPNTRDAESEAITVTAKQQPTMQANKLDSQETPSTEESRAQNVFGQDNEDSDNLFGETESSVSNNEANTPSIPTNPVDNENNKPAIKEDSTIQDSNGDVKNMEDVKIQKEEEPENNTVIEGVKEESQPDENTKEMDEVEEDDEDDDQPMISPDNSIFGDTKSESKQLGNTSSVANTPSEIPDAHKAEQEDIIEKTESVDKKVDSGEERNEQEREIMNDHSKSANPKKTTITRVEPETFEIPQAHEIVIPSYSKWFNLEKIHSIEVQSLPEFFTNRIPSKTPEVYMRYRNFMVNSYRLNPNEYFSVTTARRNVSGDAAALFRLHKFLTKWGLINYQVDSKLLPKNIEPPLTSQYSTRHDAPRGLFPFESYKPSVQLPDMAKLKKMMNTSDSESTLYKYLKESKRKYDEITHPPSTTDDENGDKNDNGGKMNNEVSTSTSMTGDANLLEEGETSRPLKKVKILEQIDENWSKEDLQKLLKGIQEFGADWYKVAKNVGNKSPEQCILRFLQLPIEDKFLYGDGNGKGDNDNGLGPLKYAPHLPFSKSENPVLSTIAFLVGLVNPKTVQSMTQRAIQSAESIKSQKEEISDQKPIEHIKEGSEIAISSLGYRSHIFATNEERQMNFLTNELIRLQMEKLDAKLNHLKKLEKFMELERKTLERQQENLLIQRLNFNQNSSKIVNVLSKCLNLISDSNINNSSVAEKEEIRSQIDHFKSMLSKPETLSIGKNPFNKPNIETGENHNGQSISNENDVKPISIEAPQFYRYWSA
2 | binds | Swp82 (natural protein, yeast, Swp82, yeast; source: overexpressed in E. coli (modified EcoExpress system), in the reconstituted complex) MLGEDEGNTVLEKGNNPSVKQGEVGAVFIVPKILIREHERVILKQILQILDQDELVQPPLDKFPYKKLELPKYIDELKTRDATNTSYKMIQLDAYGEKKVGSNGELFGGRHYLFNTFTFTAHMGVLLVLLQDVIKVLYQSNATHDEDEFIVQHDQILVMETSEEQTKFLAKNGVIPEESKGSFKYITARSAFVEFGASVIAGGQRIVDDYWESLAKKQNLSSHQRVFKLSTNLISKISLLRPSFQNNRISNANEISANTNNTCTISTSKFESQYPIVTEQPSAEIREAYIENFAKGEHISAIVPGQSISGTLELSAQFRVPRYHSKNSFQQALQMKAMDIPIGRHEELLAQYESQAPDGSASISLPNHIPSVNPSNKPIKRMLSSILDINVSSSKNKKSEENEMIKPMNKGQHKNNTSLNINGWKFESLPLKSAENSGKQQYYRGLPLYEKNTLLERLKQLTPNEIKELEHLHDAVFVNTGLQNVRKVRTKKWKKYWQYKAGIPIGLKRSQLDEFKNKYLKDVLAQTSVTTNFNEITNTDETITTKRVPNPNFLGNCNIKDFKPPYIYSHVNKVPQNVAGDKTAVKLDTEVKNTNANPVVATDPVAAKPDNLANFSNEVAMNN
